In US20150023971A1:

Columns and labels:
[1] = target: T1, RSSDFA; test: SPOT length analysis, dot 59, anti-histidine detection
T1 sequence (peptide): RSSDFA

[2] = target: T2, sortilin peptide … on SPOT membrane; test: SPOT length analysis, dot 36, anti-histidine detection
T2 sequence (peptide, C-terminus anchored to the cellulose membrane through a beta-alanine linker): FAKNFVQTD

[3] = target: T3, …; test: SPOT length analysis, dot 32, HRP-S-protein detection
T3 sequence (peptide): RSSDFAKNF

[4] = target: T4, …; test: SPOT length analysis, dot 12, anti-histidine detection
T4 sequence (peptide): IFRSSDFAKNFV

[5] = target: T5, DFAKNFV; test: SPOT length analysis, dot 52, HRP-S-protein detection
T5 sequence (peptide): DFAKNFV

[6] = target: T6, FVQTD; test: SPOT length analysis, dot 78, anti-histidine detection
T6 sequence (peptide): FVQTD

[7] = target: T1, RSSDFA; test: SPOT length analysis, dot 59, HRP-S-protein detection
[8] = target: T7, …; test: SPOT length analysis, dot 27, anti-histidine detection
T7 sequence (peptide): SDFAKNFVQT

[9] = target: T8, …; test: SPOT length analysis, dot 15, anti-histidine detection
T8 sequence (peptide): SSDFAKNFVQTD

[10] = target: T9, DFAKNF; test: SPOT length analysis, dot 62, anti-histidine detection
T9 sequence (peptide): DFAKNF

[11] = target: T10, AKNFVQTD; test: SPOT length analysis, dot 45, anti-histidine detection
T10 sequence (peptide): AKNFVQTD

[12] = target: T11, …; test: SPOT length analysis, dot 6, HRP-S-protein detection
T11 sequence (peptide): FRSSDFAKNFVQTD

[13] = target: T12, AKNFVQT; test: SPOT length analysis, dot 54, HRP-S-protein detection
T12 sequence (peptide): AKNFVQT

[14] = target: T13, KNFVQT; test: SPOT length analysis, dot 65, HRP-S-protein detection
T13 sequence (peptide): KNFVQT

[15] = target: T14, SSDFAKNF; test: SPOT length analysis, dot 41, HRP-S-protein detection
T14 sequence (peptide): SSDFAKNF

[16] = target: T15, …; test: SPOT length analysis, dot 30, HRP-S-protein detection
T15 sequence (peptide): IFRSSDFAK

[17] = target: T16, RIFRS; test: SPOT length analysis, dot 67, anti-histidine detection
T16 sequence (peptide): RIFRS

[18] = target: T17, …; test: SPOT length analysis, dot 4, anti-histidine detection
T17 sequence (peptide): RIFRSSDFAKNFVQ

[19] = target: T18, IFRSSDFA; test: SPOT length analysis, dot 38, anti-histidine detection
T18 sequence (peptide): IFRSSDFA

[20] = target: T19, NFVQTD; test: SPOT length analysis, dot 66, HRP-S-protein detection
T19 sequence (peptide): NFVQTD

[21] = target: T20, IFRSS; test: SPOT length analysis, dot 68, HRP-S-protein detection
T20 sequence (peptide): IFRSS

[22] = target: T21, NFVQT; test: SPOT length analysis, dot 77, anti-histidine detection
T21 sequence (peptide): NFVQT

[23] = target: T22, AKNFV; test: SPOT length analysis, dot 75, anti-histidine detection
T22 sequence (peptide): AKNFV

[24] = target: T23, sortilin 4-mer peptide RIFR (length analysis); test: SPOT length analysis, dot 79, anti-histidine detection
T23 sequence (peptide, C-terminus anchored to the cellulose membrane through a beta-alanine linker): RIFR

[25] = target: T24, …; test: SPOT length analysis, dot 7, anti-histidine detection
T24 sequence (peptide): RIFRSSDFAKNFV

[26] = target: T25, …; test: SPOT length analysis, dot 26, anti-histidine detection
T25 sequence (peptide): SSDFAKNFVQ

[27] = target: T26, …; test: SPOT length analysis, dot 20, anti-histidine detection
T26 sequence (peptide): SSDFAKNFVQT

[28] = target: T27, FRSSDF; test: SPOT length analysis, dot 58, HRP-S-protein detection
T27 sequence (peptide): FRSSDF

[29] = target: T18, IFRSSDFA; test: SPOT length analysis, dot 38, HRP-S-protein detection
[30] = target: T28, AKNFVQ; test: SPOT length analysis, dot 64, anti-histidine detection
T28 sequence (peptide): AKNFVQ

[31] = target: T29, DFAK; test: SPOT length analysis, dot 85, anti-histidine detection
T29 sequence (peptide): DFAK

[32] = target: T7, …; test: SPOT length analysis, dot 27, HRP-S-protein detection
[33] = target: T30, …; test: SPOT length analysis, dot 31, anti-histidine detection
T30 sequence (peptide): FRSSDFAKN

[34] = target: T31, RSSD; test: SPOT length analysis, dot 82, HRP-S-protein detection
T31 sequence (peptide): RSSD

B1: recombinant his-S-tagged pro-domain of human BDNF (residues Ala1-Arg110), from pET-30 Xa/LIC, E. coli (protein, not shown: small tags and cut ends)
chain: APMKEANIRGQGGLAYPGVRTHGTLESVNGPKAGSGLTSLADTFEHVIEELLDEDQKVRPNEENNKDADLYTSRVMLSSQVPLEPPLLFLLEEYKNYLDAANMSMRVRR
Question: Which BLU His [1] does the source give for B1 here?
Answer: 18300 BLU

Question: What about the BLU His [2] of the same binder?
Answer: 30800 BLU

Question: What about the BLU Sprotein [3] of the same binder?
Answer: 19500 BLU

Question: And the BLU His [4]?
Answer: 45100 BLU

Question: What about the BLU Sprotein [5] of the same binder?
Answer: 17400 BLU

Question: What about the BLU His [6] of the same binder?
Answer: 22400 BLU

Question: And the BLU Sprotein [7]?
Answer: 15900 BLU

Question: What about the BLU His [8] of the same binder?
Answer: 17500 BLU

Question: And the BLU His [9]?
Answer: 19200 BLU

Question: What about the BLU His [10] of the same binder?
Answer: 15200 BLU

Question: And the BLU His [11]?
Answer: 16000 BLU

Question: What about the BLU Sprotein [12] of the same binder?
Answer: 38100 BLU

Question: What about the BLU Sprotein [13] of the same binder?
Answer: 16700 BLU

Question: And the BLU Sprotein [14]?
Answer: 14300 BLU

Question: And the BLU Sprotein [15]?
Answer: 16300 BLU

Question: And the BLU Sprotein [16]?
Answer: 25700 BLU

Question: What about the BLU His [17] of the same binder?
Answer: 115000 BLU

Question: What about the BLU His [18] of the same binder?
Answer: 141000 BLU

Question: And the BLU His [19]?
Answer: 21400 BLU

Question: What about the BLU Sprotein [20] of the same binder?
Answer: 14500 BLU

Question: What about the BLU Sprotein [21] of the same binder?
Answer: 38500 BLU

Question: And the BLU His [22]?
Answer: 17300 BLU

Question: What about the BLU His [23] of the same binder?
Answer: 17500 BLU

Question: What about the BLU His [24] of the same binder?
Answer: 127000 BLU

Question: What about the BLU His [25] of the same binder?
Answer: 102000 BLU

Question: And the BLU His [26]?
Answer: 17800 BLU

Question: And the BLU His [27]?
Answer: 16700 BLU

Question: And the BLU Sprotein [28]?
Answer: 16900 BLU

Question: What about the BLU Sprotein [29] of the same binder?
Answer: 24400 BLU

Question: And the BLU His [30]?
Answer: 15600 BLU

Question: And the BLU His [31]?
Answer: 14400 BLU

Question: What about the BLU Sprotein [32] of the same binder?
Answer: 19100 BLU

Question: And the BLU His [33]?
Answer: 20400 BLU

Question: What about the BLU Sprotein [34] of the same binder?
Answer: 14900 BLU
